Laboratory results from patent US20260265348A1 (HEIDELBERG IMMUNOTHERAPEUTICS, published 2026).

Tests used:
HSV-1F gB Y326A = HSV-1F gB Y326A (HSV-1 strain F, UniProt P06436 30-903); test: cell-based or functional assay
HSV-1F gB R335A = HSV-1F gB R335A (HSV-1 strain F, UniProt P06436 30-903); test: cell-based or functional assay
HSV-1F gB D199A = HSV-1F gB D199A (HSV-1 strain F, UniProt P06436 30-903); test: cell-based or functional assay
[1] = molecular target: HSV-1F gB R335Q (HDIT102(H4)-resistant escape mutant) (HSV-1 strain F, UniProt P06436 30-903); test: cell-based or functional assay
HSV-1F gB K204A = HSV-1F gB K204A (HSV-1 strain F, UniProt P06436 30-903); test: cell-based or functional assay
[2] = molecular target: T1, HSV-1F gB R304Q (HDIT101-resistance mutant) (HSV-1 strain F, UniProt P06436 30-903); test: cell-based or functional assay
[3] = molecular target: glycoprotein B (gB) of HSV-2 strain G, full length, wild type (HSV-2 strain G); test: cell-based or functional assay
[4] = molecular target: glycoprotein B (gB) of HSV-1 strain F, full length, wild type (HSV-1 strain F, UniProt P06436 30-903); test: cell-based or functional assay
HSV-1F gB K320A = HSV-1F gB K320A (HSV-1 strain F, UniProt P06436 30-903); test: cell-based or functional assay
[5] = molecular target: T1, HSV-1F gB R304Q (HDIT101-resistance …); test: flow cytometry of HEK293T cells transfected with a gB plasmid, FITC anti-human Fc secondary antibody, iMFI
[6] = molecular target: T2, recombinant HSV-1F glycoprotein B (gB) ectodomain (aa 30-729), trimeric (HSV-1 strain F, UniProt P06436 30-729); test: BLI (Octet), biotinylated gB on streptavidin tips, IgG in solution; full IgG, not Fab
T2 construct: also called recombinant HSV-1 gB; HSV-1F gB

[7] = molecular target: T2, recombinant HSV-1F glycoprotein B (gB) …; test: BLI (Octet), Fab, Kd=kdis/ka
[8] = molecular target: T2, recombinant HSV-1F glycoprotein B (gB) …; test: BLI (Octet), biotinylated gB on streptavidin tips, Fab dilution series, global 1:1 fit
[9] = molecular target: T2, recombinant HSV-1F glycoprotein B (gB) …; test: BLI (Octet), biotinylated gB on streptavidin tips, Fab dilution series, global 1:1 fit; Fab; HSV-1F gB

B1: HDIT102(H4), fully human IgG1 anti-HSV gB antibody (antibody, V domains shown)
VH: EVQLVQSGAEVKTPGASVRVSCKASGHTFRTFDINWVRQAAGQGLEWMGWMSPNSGNTGYARQFQGRVTMTRNISANTAYMELRGLRFDDTAVYYCARGPGSTGTTGSMDVWGQGTTVTVSS
VL: QAGLTQPPSVSVAPGKTARISCGGNNIGSKSVHWYQQKPGQAPVLVIYYDSDRPSGIPERFSGSNSGNTATLTISRVEAGDEADYYCQVWDSGSVVFGGGTKLTVLG
inhibition of gB-mediated cell-cell fusion by HDIT102(H4) (75 µg/ml), relative to wild type gB (HSV-1F gB Y326A): 72.7 % of WT
inhibition of gB-mediated cell-cell fusion by HDIT102(H4) (75 µg/ml), relative to wild type gB (HSV-1F gB R335A): 19.3 % of WT
inhibition of gB-mediated cell-cell fusion by HDIT102(H4) (75 µg/ml), relative to wild type gB (HSV-1F gB D199A): 32.9 % of WT
inhibition of gB-mediated cell-cell fusion by HDIT102(H4) (75 µg/ml), relative to wild type gB [1]: 18.8 % of WT
inhibition of gB-mediated cell-cell fusion by HDIT102(H4) (75 µg/ml), relative to wild type gB (HSV-1F gB K204A): 57.3 % of WT
inhibition of gB-mediated cell-cell fusion by HDIT102(H4) (75 µg/ml), relative to wild type gB [2]: 92.3 % of WT
inhibitory concentration for 50% neutralization (IC50) of 100 TCID50 cell-free HSV-2G on Vero cells [3]: 12.5 nM
inhibitory concentration for 50% neutralization (IC50) of 100 TCID50 cell-free HSV-1F on Vero cells [4]: 25.5 nM
inhibition of gB-mediated cell-cell fusion by HDIT102(H4) (75 µg/ml), relative to wild type gB (HSV-1F gB K320A): 90.1 % of WT

B2: HDIT101, humanized IgG1 MAb2c (antibody, V domains shown)
VH: QVTLKESGPALVKPTQTLTLTCTFSGFSLSTSGMSVGWIRQPPGKALEWLAHIWWNNDKYYKPALKSRLTISKDTSKNQVVLTMTNMDPVDTATYYCARIYYGYRPYAMDYWGQGTLVTVSS
VL: DIVMTQTPLSLPVTPGEPASISCRSSQSIVHSNGNTYLEWYLQKPGQSPQLLIYKVSNRFSGVPDRFSGSGSGTDFTLKISRVEAEDVGVYYCFQGSHVPWSFGQGTKVEIKR
notes: also called MAb hu2c; HDIT101 IgG
binding result [5]: no binding
koff [6]: ~0.0011 s⁻¹

B3: HDIT101 Fab (Fab, V domains shown)
VH: B2 VH
VL: B2 VL
Kd [7]: 7.26 nM
koff [8]: 0.00313 s⁻¹
kon [9]: 435000 M⁻¹ s⁻¹

B4: HDIT102(H4) Fab (Fab, V domains shown)
VH: B1 VH
VL: B1 VL
notes: also called Fab HDIT102; Fab HDIT102 (H4)
Kd [7]: 0.0895 nM
koff [9]: 8.85e-05 s⁻¹
kon [9]: 992000 M⁻¹ s⁻¹
